In PMC7231638:
Read-outs that look alike come from different tables or passages of the source.

Legend:
Mre11ND Y187F [1] = molecular target: T1, Mre11ND Y187F (Pyrococcus furiosus, UniProt Q8U1N9 1-342, Y187F); assay: NMR imino proton melting
Mre11ND Y187C [2] = molecular target: T2, Mre11ND Y187C (Pyrococcus furiosus, UniProt Q8U1N9 1-342, Y187C); assay: fluorescence polarization
Mre11ND H52S [3] = molecular target: T3, Mre11ND H52S (Pyrococcus furiosus, UniProt Q8U1N9 1-342, H52S); assay: fluorescence polarization
[4] = molecular target: T4, Mre11 Y187F (in MRNBD);Rad50NBD (Pyrococcus furiosus;Pyrococcus furiosus, UniProt Q8U1N9;P58301 1-426;1-195+709-882, Y187F|internal_change); assay: fluorescence polarization
Mre11ND WT [5] = molecular target: T5, Mre11ND WT (Pyrococcus furiosus, UniProt Q8U1N9 1-342); assay: fluorescence polarization
Mre11ND Y187F [6] = molecular target: T1, Mre11ND Y187F; assay: fluorescence polarization
[7] = molecular target: T6, Mre11 H52S (in MRNBD);Rad50NBD (Pyrococcus furiosus;Pyrococcus furiosus, UniProt Q8U1N9;P58301 1-426;1-195+709-882, H52S|internal_change); assay: fluorescence polarization
[8] = molecular target: T7, Mre11 WT (in MRNBD);Rad50NBD (Pyrococcus furiosus;Pyrococcus furiosus, UniProt Q8U1N9;P58301 1-426;1-195+709-882, |internal_change); assay: fluorescence polarization
[9] = molecular target: T8, Mre11 Y187C (in MRNBD);Rad50NBD (Pyrococcus furiosus;Pyrococcus furiosus, UniProt Q8U1N9;P58301 1-426;1-195+709-882, Y187C|internal_change); assay: fluorescence polarization
[10] = molecular target: T4, Mre11 Y187F (in MRNBD);Rad50NBD; assay: fluorescence polarization; remark: listed apart in the source
[11] = molecular target: T7, Mre11 WT (in MRNBD);Rad50NBD; assay: fluorescence polarization; remark: listed apart in the source
Mre11ND WT [12] = molecular target: T5, Mre11ND WT; assay: fluorescence polarization; remark: listed apart in the source
Mre11ND Y187C [13] = molecular target: T2, Mre11ND Y187C; assay: fluorescence polarization; remark: listed apart in the source
[14] = molecular target: T8, Mre11 Y187C (in MRNBD);Rad50NBD; assay: fluorescence polarization; remark: listed apart in the source
[15] = molecular target: T6, Mre11 H52S (in MRNBD);Rad50NBD; assay: fluorescence polarization; remark: listed apart in the source
Mre11ND Y187F [16] = molecular target: T1, Mre11ND Y187F; assay: fluorescence polarization; remark: listed apart in the source
Mre11ND H52S [17] = molecular target: T3, Mre11ND H52S; assay: fluorescence polarization; remark: listed apart in the source

CACGCACGTAGAAGCTTTTGCTTCTACGTGCGTGACT (structured_DNA) [hairpin dsDNA DSB mimic]
binding result (Mre11ND Y187F [1]): binds

GTGTTCGGACTCTGCCTCAAGACGGTAGTCAACGTGCTTG (ssDNA) [FAM 40-mer ssDNA]
Kd (Mre11ND Y187C [2]): 240 nM
Kd (Mre11ND H52S [3]): 170 nM
Kd [4]: 190 nM
Kd (Mre11ND WT [5]): 130 nM
Kd (Mre11ND Y187F [6]): 110 nM
Kd [7]: 170 nM
Kd [8]: 180 nM
Kd [9]: 210 nM

B1: FAM 40-mer dsDNA (dsDNA)
DNA 1: GTGTTCGGACTCTGCCTCAAGACGGTAGTCAACGTGCTTG
DNA 2: CAAGCACGTTGACTACCGTCTTGAGGCAGAGTCCGAACAC
Kd [10]: 1320 nM
Kd [11]: 1410 nM
Kd (Mre11ND WT [12]): 1300 nM
Kd (Mre11ND Y187C [13]): 1980 nM
Kd [14]: 1800 nM
Kd [15]: 4170 nM
Kd (Mre11ND Y187F [16]): 710 nM
Kd (Mre11ND H52S [17]): 3170 nM
